Tested on: Escherichia coli TOP10
Assay: shrunken log2 fold change of peptide-encoding DNA abundance (4.5 h post-induction vs induction); higher = less antimicrobial activity (less host growth inhibition)
Details: time post-induction: 4.5 h; library: site-saturation at positions 5, 18, 19, 20
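Further: peptides expressed intracellularly from a pBAD plasmid library in pooled LB shake-flask culture, induced with 0.3% L-arabinose, DNA abundance read by NGS, three biological replicates, DESeq2 with apeglm shrinkage.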

Row | Sequence | shrunken log2 fold change
1 | RRIRCRPPRLPRPRPRPGIDPRP | 0.0673
2 | RRIRIRPPRLPRPRPRPWPAPRP | -0.768
3 | RRIRMRPPRLPRPRPRPMPEPRP | 0.627
4 | RRIRDRPPRLPRPRPRPQQFPRP | 0.251
5 | RRIRPRPPRLPRPRPRPWVFPRP | 0.0691
6 | RRIRCRPPRLPRPRPRPWVSPRP | -0.463
7 | RRIRIRPPRLPRPRPRPRTEPRP | 0.0225
8 | RRIRYRPPRLPRPRPRPTMSPRP | -0.0772
9 | RRIRVRPPRLPRPRPRPSLRPRP | 0.133
10 | RRIRQRPPRLPRPRPRPFRCPRP | -0.0452
11 | RRIRYRPPRLPRPRPRPICNPRP | -0.332
12 | RRIRPRPPRLPRPRPRPVFTPRP | -0.0534
13 | RRIRKRPPRLPRPRPRPTFDPRP | 0.227
14 | RRIRMRPPRLPRPRPRPVGPPRP | 0.67
15 | RRIRVRPPRLPRPRPRPESVPRP | -0.204
16 | RRIRERPPRLPRPRPRPANLPRP | -0.254
17 | RRIRMRPPRLPRPRPRPHCMPRP | -0.122
18 | RRIRVRPPRLPRPRPRPYKAPRP | -0.0443
19 | RRIRKRPPRLPRPRPRPWVMPRP | -0.251
20 | RRIRPRPPRLPRPRPRPAGWPRP | 0.765
21 | RRIRFRPPRLPRPRPRPFCLPRP | -0.467
22 | RRIRGRPPRLPRPRPRPFTFPRP | -0.0577
23 | RRIRCRPPRLPRPRPRPFSVPRP | -0.236
24 | RRIRQRPPRLPRPRPRPWGAPRP | 0.351
25 | RRIRPRPPRLPRPRPRPITLPRP | 0.0118

Row | Sequence | shrunken log2 fold change
26 | RRIRRRPPRLPRPRPRPVDSPRP | 0.127
27 | RRIRDRPPRLPRPRPRPEVYPRP | -0.00999
28 | RRIRKRPPRLPRPRPRPLIDPRP | 0.449
29 | RRIRPRPPRLPRPRPRPQSQPRP | -0.00349
30 | RRIRRRPPRLPRPRPRPARLPRP | 0.269
31 | RRIRERPPRLPRPRPRPDWVPRP | 0.0322
32 | RRIRSRPPRLPRPRPRPEPPPRP | 0.662
33 | RRIRDRPPRLPRPRPRPQWPPRP | -0.0971
34 | RRIRSRPPRLPRPRPRPHFKPRP | -0.383
35 | RRIRLRPPRLPRPRPRPFENPRP | -0.388
36 | RRIRQRPPRLPRPRPRPTAGPRP | 0.144
37 | RRIRVRPPRLPRPRPRPATVPRP | -0.154
38 | RRIRKRPPRLPRPRPRPYFNPRP | -0.593
39 | RRIRSRPPRLPRPRPRPPLSPRP | 0.125
40 | RRIRPRPPRLPRPRPRPLKHPRP | -0.221
41 | RRIRRRPPRLPRPRPRPDHQPRP | -0.18
42 | RRIRCRPPRLPRPRPRPGWCPRP | -0.0717
43 | RRIRVRPPRLPRPRPRPSSKPRP | -0.0737
44 | RRIRRRPPRLPRPRPRPAQQPRP | 0.938
45 | RRIRDRPPRLPRPRPRPRHHPRP | -0.043
46 | RRIRFRPPRLPRPRPRPHHCPRP | -0.198
47 | RRIRCRPPRLPRPRPRPQAMPRP | 0.189
48 | RRIRRRPPRLPRPRPRPPAPPRP | 1.13
49 | RRIRARPPRLPRPRPRPRPDPRP | 0.819
50 | RRIRERPPRLPRPRPRPVCYPRP | -0.266

Row | Sequence | shrunken log2 fold change
51 | RRIRGRPPRLPRPRPRPRKEPRP | 0.363
52 | RRIRNRPPRLPRPRPRPEHDPRP | 0.0627
53 | RRIRWRPPRLPRPRPRPFPCPRP | -0.0902
54 | RRIRARPPRLPRPRPRPWKDPRP | -0.0732
55 | RRIRGRPPRLPRPRPRPLNSPRP | 0.181
56 | RRIRVRPPRLPRPRPRPWLCPRP | -0.144
57 | RRIRSRPPRLPRPRPRPEHQPRP | 0.163
58 | RRIRMRPPRLPRPRPRPQMDPRP | 0.224
59 | RRIRQRPPRLPRPRPRPIFHPRP | -0.176
60 | RRIRCRPPRLPRPRPRPNLTPRP | -0.162
61 | RRIRGRPPRLPRPRPRPGKVPRP | 0.598
62 | RRIRMRPPRLPRPRPRPHFVPRP | -0.025
63 | RRIRLRPPRLPRPRPRPYYDPRP | -0.379
64 | RRIRRRPPRLPRPRPRPCINPRP | 2.42
65 | RRIRMRPPRLPRPRPRPLPCPRP | 0.372
66 | RRIRQRPPRLPRPRPRPAHIPRP | -0.137
67 | RRIRARPPRLPRPRPRPLWFPRP | 0.145
68 | RRIRMRPPRLPRPRPRPFFYPRP | -0.123
69 | RRIRERPPRLPRPRPRPFNRPRP | -0.0972
70 | RRIRRRPPRLPRPRPRPHEGPRP | 0.28
71 | RRIRVRPPRLPRPRPRPHPYPRP | -1.08
72 | RRIRFRPPRLPRPRPRPASHPRP | 0.0492
73 | RRIRCRPPRLPRPRPRPMHQPRP | -0.0626
74 | RRIRLRPPRLPRPRPRPGWPPRP | 0.406
75 | RRIRKRPPRLPRPRPRPNHIPRP | -0.358

Row | Sequence | shrunken log2 fold change
76 | RRIRTRPPRLPRPRPRPATWPRP | 0.164
77 | RRIRCRPPRLPRPRPRPTPSPRP | 0.736
78 | RRIRIRPPRLPRPRPRPDYQPRP | -0.611
79 | RRIRSRPPRLPRPRPRPNVKPRP | -0.332
80 | RRIRYRPPRLPRPRPRPEWTPRP | -0.247
81 | RRIRGRPPRLPRPRPRPMVLPRP | -0.0349
82 | RRIRPRPPRLPRPRPRPSCMPRP | -0.279
83 | RRIRIRPPRLPRPRPRPIYQPRP | -0.00516
84 | RRIRVRPPRLPRPRPRPIFKPRP | -0.0901
85 | RRIRLRPPRLPRPRPRPMEKPRP | 0.0493
86 | RRIRYRPPRLPRPRPRPLAPPRP | 0.107
87 | RRIRCRPPRLPRPRPRPLYWPRP | -0.201
88 | RRIRPRPPRLPRPRPRPYVRPRP | -0.61
89 | RRIRHRPPRLPRPRPRPWDFPRP | -0.0612
90 | RRIRVRPPRLPRPRPRPYARPRP | -0.243
91 | RRIRYRPPRLPRPRPRPPPMPRP | 0.46
92 | RRIRWRPPRLPRPRPRPNLKPRP | -0.0669
93 | RRIRIRPPRLPRPRPRPGWKPRP | -0.0134
94 | RRIRFRPPRLPRPRPRPDYGPRP | -0.238
95 | RRIRLRPPRLPRPRPRPTSGPRP | 0.0882
96 | RRIRMRPPRLPRPRPRPEALPRP | 3.81
97 | RRIRTRPPRLPRPRPRPGWCPRP | 1.42
98 | RRIRSRPPRLPRPRPRPIWLPRP | 0.222
99 | RRIRPRPPRLPRPRPRPQIHPRP | -0.536
100 | RRIRQRPPRLPRPRPRPQSGPRP | -0.0474

Row | Sequence | shrunken log2 fold change
101 | RRIRIRPPRLPRPRPRPNTTPRP | -0.357
102 | RRIRGRPPRLPRPRPRPRPSPRP | 0.49
103 | RRIRFRPPRLPRPRPRPVNVPRP | -0.404
104 | RRIRPRPPRLPRPRPRPRMIPRP | 0.0799
105 | RRIRSRPPRLPRPRPRPYNAPRP | -0.254
106 | RRIRLRPPRLPRPRPRPWQYPRP | -0.0471
107 | RRIRERPPRLPRPRPRPTSNPRP | -0.504
108 | RRIRTRPPRLPRPRPRPLFEPRP | -0.166
109 | RRIRPRPPRLPRPRPRPDCLPRP | 0.0136
110 | RRIRKRPPRLPRPRPRPVCKPRP | 0.0228
111 | RRIRYRPPRLPRPRPRPVSAPRP | -0.332
112 | RRIRKRPPRLPRPRPRPTQWPRP | 0.622
113 | RRIRSRPPRLPRPRPRPMTDPRP | -0.222
114 | RRIRLRPPRLPRPRPRPLPSPRP | 3.98
115 | RRIRKRPPRLPRPRPRPIQLPRP | -0.0418
116 | RRIRTRPPRLPRPRPRPTSSPRP | 0.113
117 | RRIRLRPPRLPRPRPRPKHDPRP | -0.0476
118 | RRIRTRPPRLPRPRPRPKICPRP | -0.292
119 | RRIRCRPPRLPRPRPRPVTGPRP | -0.0982
120 | RRIRERPPRLPRPRPRPHQCPRP | -0.262
121 | RRIRSRPPRLPRPRPRPGARPRP | 0.492
122 | RRIRSRPPRLPRPRPRPVLQPRP | 0.371
123 | RRIRSRPPRLPRPRPRPNGPPRP | -0.42
124 | RRIRNRPPRLPRPRPRPCGAPRP | 0.144
125 | RRIRDRPPRLPRPRPRPQRFPRP | 0.095

From the supplement of paper PMC9112550, “Optimization of the antimicrobial peptide Bac7 by deep mutational scanning” (BMC Biology, 2022)
